US20250339569A1 (3B PHARMACEUTICALS, published 2025)
Starred links: 1 amine or outer side, 2 acyl side, 3 side chain; linkers in the order of their positions; H or OH if unused. Positions of bridges follow the written chain, without caps; N, C: chain ends. Non-standard residues stand in square brackets, D forms with d. Primed or numbered codes have the meaning given here. *: point of attachment. Aph(4SaPy2Ac) = 4-amino-L-phenylalanine, ring amine acylated by (4-sulfamoyl-pyrazol-1-yl)-acetic acid, NS(=O)(=O)c1cnn(CC(=O)Nc2ccc(C[C@H](N[*:1])C(=O)[*:2])cc2)c1; Aph(6SaPyr3) = 4-amino-L-phenylalanine, ring amine acylated by 6-sulfamoylpyridine-3-carboxylic acid, NS(=O)(=O)c1ccc(C(=O)Nc2ccc(C[C@H](N[*:1])C(=O)[*:2])cc2)cn1; Aph(SaPr)(5) = 4-amino-L-phenylalanine acylated on the ring amine with 3-sulfamoylpropanoic acid, NS(=O)(=O)CCC(=O)Nc1ccc(C[C@H](N[*:1])C(=O)[*:2])cc1; PPAc(3) = 4-carboxymethyl piperazine linker between DOTA and Gln1, O=C(CN1CCN([*:1])CC1)[*:2]; 111In‑DOTA = O=C([O-])CN1CCN(CC(=O)[O-])CCN(CC(=O)*)CCN(CC(=O)[O-])CC1.[111In+3]; Phe(3-NHCO(CH2)3SO2NH2) = N[C@@H](Cc1cccc(NC(=O)CCCS(N)(=O)=O)c1)C(=O)O; DOTA = O=C(O)CN1CCN(CC(=O)O)CCN(CC(=O)*)CCN(CC(=O)O)CC1; PPAc = 4-carboxymethyl piperazine linker; mXylylene = c1cc(C[*:1])cc(C[*:2])c1; APAc = not defined here

Legend:
[1] = target: T1, murine carbonic anhydrase 9 (CAIX) (mouse, UniProt Q8VHB5 32-437); assay: radioligand binding, 111In-labeled compound, CHO cells with mouse CAIX; pKD category B: 7.1-8.0
T1 construct: On transfected CHO-VGT cells; also called mouse CAIX

[2] = target: T2, canine carbonic anhydrase 9 (CAIX) (dog); assay: radioligand binding, 111In-labeled compound, CHO cells with dog CAIX; pKD category A: >8.0
T2 construct: On transfected CHO-VGT cells; also called dog CAIX
T2 sequence (chain, as listed by the source limits assumed): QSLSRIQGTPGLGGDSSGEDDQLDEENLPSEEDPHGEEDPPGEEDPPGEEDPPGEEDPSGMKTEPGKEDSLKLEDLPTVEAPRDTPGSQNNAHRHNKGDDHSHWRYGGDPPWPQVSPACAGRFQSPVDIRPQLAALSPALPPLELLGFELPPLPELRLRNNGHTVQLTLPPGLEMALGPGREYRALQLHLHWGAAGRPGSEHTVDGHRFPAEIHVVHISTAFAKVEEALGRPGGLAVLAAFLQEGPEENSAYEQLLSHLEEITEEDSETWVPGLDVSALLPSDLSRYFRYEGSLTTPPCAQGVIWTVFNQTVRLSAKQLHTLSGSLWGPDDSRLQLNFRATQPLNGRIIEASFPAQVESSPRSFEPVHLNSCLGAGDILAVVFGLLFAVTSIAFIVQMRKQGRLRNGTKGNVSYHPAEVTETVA
Experimental: CHO-VGT cells were transfected with the human, dog, and mouse CAIX (InSCREENex GmbH) and cultured in Ham's F-12 medium (Sigma-Aldrich #N4888) supplemented with 10% fetal bovine serum (FCS), 2 mM L-glutamine, 100 U/mL Penicillin, and 0.1 mg/mL streptomycin. […] Cell concentrations were adjusted to 3×10⁵ mL⁻¹, and 1.000 μL of the suspension per well were dispensed into flat-clear-bottom 24 well plates.
Approximately 24 hours after re-seeding, the medium was aspirated and the cells were washed once with 1000 μL assay medium (Ham's medium without additives). To determine total binding, 700 μL of assay medium and 100 μL of the radioligand dilutions were added to the wells in triplicates. To determine non-specific binding, 600 μL of binding medium, 100 μL of the radioligand dilutions and 100 μL of a blocking solution containing 8 μM non-labeled compound were added to the wells in triplicates. […] An aliquot of each radioligand dilution was included in the gamma counter measurements to allow for determination of their actual concentrations via their known specific activity.

[3] = target: human carbonic anhydrase IX (CAIX) (human, UniProt Q16790 38-459); assay: FACS competition, HT-29 cells, tracer 3BP-4149; pIC50 category C: 6.1-7.0
Experimental: CAIX-expressing human HT-29 colorectal cancer cells (DSMZ, RRID: CVCL_0320) were cultured in McCoys's 5A modified medium (Biochrom, #F1015) including 10% fetal calf serum (FCS), 2 mM L-glutamine, 100 U/ml penicillin and 100 μg/mL streptomycin. Cells were detached with Accutase (Biolegend, #423201) and washed in FACS buffer (PBS including 1% FCS). Cells were diluted in FACS buffer to a final concentration of 500.000 cells per ml. 200 μL of the cell suspension were transferred to a u-shaped non-binding 96-well plate (Greiner) and cells were washed in ice-cold FACS buffer.
When biotinylated compounds were used an additional incubation step with 1 μg/mL APC-Streptavidin (Miltenyi; #130-106-791) in 50 μL FACS buffer for 30 minutes on ice was performed.
Cells were washed twice with ice-cold FACS buffer and analyzed in an Attune NxT flow cytometer (Thermo Fisher). Median fluorescence intensities (MFI) of the APC/Cy5-channel were calculated by Attune NxT software.

[4] = target: T3, Fc-fusion protein of human carbonic anhydrase IX (human, UniProt Q16790 38-414); assay: SPR, CAIX; pKD category A: >8.0
Experimental: Stock solutions of test compounds were prepared by dissolving each compound in DMSO. DMSO stock solution were diluted 1:1000 in Running Buffer without DMSO. […] SPR binding analyses were performed in Single Cycle Kinetic (SCK) mode at 25° C.
(§1) For each test compound, SPR raw data in the form of resonance units (RU) were plotted as sensorgrams using the Biacore™ T200 control software. The signal from the blank sensorgram was subtracted from that of the test compound sensorgram (blank corrected). The blank corrected sensorgram was corrected for baseline drift by subtracting the sensorgram of a SCK run without the test compound (running buffer only). […] Raw data and fit results were imported as text files in IDBS. The pKD value (negative decadic logarithm of dissociation constant) was calculated in the IDBS excel template.

[5] = target: T4, human carbonic anhydrase IV (CAIV), biotinylated (human, UniProt P22748 19-283, limits assumed, biotinylated); assay: SPR, biotinylated CAIV captured (Biotin CAPture)
T4 construct: Bought (SinoBiological, Cat # printed 10472-1H081H); also called hCAIV-bio
Excerpt: as §1

[6] = target: T5, human carbonic anhydrase XII (CAXII), biotinylated (human, UniProt O43570 25-301, biotinylated); assay: SPR, biotinylated CAXII captured (Biotin CAPture)
T5 construct: Bought (SinoBiological Cat #10617-H08H); also called hCAXII-bio
Excerpt: as §1

[7] = target: T3, Fc-fusion protein of human carbonic …; assay: SPR, captured hCAIX-Fc; t1/2 category A: >15.0 min
[8] = target: T6, human carbonic anhydrase XIV (CAXIV), biotinylated (human, UniProt Q9ULX7 16-290, biotinylated); assay: SPR, biotinylated CAXIV captured (Biotin CAPture)
T6 construct: Bought (SinoBiological Cat #10458-H08H); also called hCAXIV-bio
Excerpt: as §1

[9] = target: T3, Fc-fusion protein of human carbonic …; assay: SPR, captured hCAIX-Fc; pKD category A: >8.0
[10] = target: Human carbonic anhydrase IX Fc-fusion protein (CAIX, Sino Biological, 10107-H02H) (human, UniProt Q16790 38-414); assay: SPR (Biacore T200), CAIX-Fc captured by anti-human Fc antibody, peptide as analyte, single cycle kinetics, 25 C, 1:1 Langmuir fit
Experimental: Surface Plasmon Resonance (SPR) studies were performed on a Biacore™ T200 using a ligand capture approach. Basically, anti-human Fc antibodies were immobilized on the surface of a sensor chip and CAIX was captured on the functionalized surface via its Fc Tag.

[11] = target: T7, canine carbonic anhydrase 9 (CAIX) (dog); assay: radioligand saturation binding on CHO cells with dog CAIX, 8 h at 37 C
T7 construct: also called dog CAIX; dgCAIX
T7 sequence (chain, as listed by the source limits assumed): as above
Experimental: The radioligand saturation binding on CHO-huCAIX and dgCAIX was determined as follows. […] To determine total binding, 700 μL of binding medium and 100 μL of the radioligand dilutions were added to the wells in triplicates. […] The plates were incubated for 8 h at 37° C. under standard cell culture conditions (5% CO2). At the end of the incubation time the plates were placed on ice while aspirating the radioligand solutions. Aliquots of the 20 nM supernatants were transferred to HPLC vials for analysis of radioligand stability over the incubation time. Subsequently, the cells were washed with ice-cold PBS (0.5 mL, 1 mL, 1 mL). 300 μL of RIPA buffer containing PIC was added to each well and the plates were placed on a shaker for 10 min at ambient temperature. 200 μL of the cell lysate of each well was transferred to gamma-counting tubes. Their associated radioactivity was counted using a gamma counter and normalized to the measured protein concentration of each well (see chapter 6.3.7 BCA protein assay). An aliquot of each radioligand dilution was included in the gamma counter measurements to allow for determination of the actual radioligand concentrations in the dilution series.

T1 sequence (Q8VHB5 32-437 limits assumed): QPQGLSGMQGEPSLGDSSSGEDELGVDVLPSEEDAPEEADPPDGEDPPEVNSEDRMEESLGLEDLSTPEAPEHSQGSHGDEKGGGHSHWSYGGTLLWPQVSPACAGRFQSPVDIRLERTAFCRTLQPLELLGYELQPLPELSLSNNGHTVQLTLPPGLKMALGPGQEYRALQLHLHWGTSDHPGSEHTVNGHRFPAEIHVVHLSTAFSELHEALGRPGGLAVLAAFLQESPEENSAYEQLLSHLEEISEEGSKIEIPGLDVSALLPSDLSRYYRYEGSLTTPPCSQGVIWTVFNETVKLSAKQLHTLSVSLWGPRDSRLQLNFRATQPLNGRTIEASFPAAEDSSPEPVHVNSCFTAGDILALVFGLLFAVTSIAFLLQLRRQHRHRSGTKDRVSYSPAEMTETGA
T6 sequence (Q9ULX7 16-290 limits assumed): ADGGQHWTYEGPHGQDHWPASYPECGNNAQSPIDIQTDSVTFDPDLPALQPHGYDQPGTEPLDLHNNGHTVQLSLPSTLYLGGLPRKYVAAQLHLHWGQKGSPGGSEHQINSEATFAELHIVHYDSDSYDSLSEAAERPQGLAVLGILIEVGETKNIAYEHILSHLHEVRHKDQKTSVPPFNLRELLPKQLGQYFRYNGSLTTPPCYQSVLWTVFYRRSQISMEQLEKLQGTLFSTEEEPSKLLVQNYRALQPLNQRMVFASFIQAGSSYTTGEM
T4 sequence (P22748 19-283 limits assumed): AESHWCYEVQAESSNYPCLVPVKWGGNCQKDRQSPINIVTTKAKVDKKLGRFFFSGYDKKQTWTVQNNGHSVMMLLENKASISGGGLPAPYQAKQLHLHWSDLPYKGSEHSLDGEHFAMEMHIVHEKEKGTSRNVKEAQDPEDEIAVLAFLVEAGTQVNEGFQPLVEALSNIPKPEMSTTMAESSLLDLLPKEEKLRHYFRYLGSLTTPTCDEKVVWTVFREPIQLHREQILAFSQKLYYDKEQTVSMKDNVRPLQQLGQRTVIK
T5 sequence (O43570 25-301 limits assumed): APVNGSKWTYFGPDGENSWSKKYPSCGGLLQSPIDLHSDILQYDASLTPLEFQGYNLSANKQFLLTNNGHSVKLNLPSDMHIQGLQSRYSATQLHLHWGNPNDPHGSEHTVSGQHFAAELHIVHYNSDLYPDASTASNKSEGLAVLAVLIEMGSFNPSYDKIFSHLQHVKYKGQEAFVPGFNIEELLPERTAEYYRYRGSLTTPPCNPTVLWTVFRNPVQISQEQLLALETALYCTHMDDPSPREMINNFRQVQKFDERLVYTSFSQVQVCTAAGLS

**Q.** How did the pKD [1] turn out when {111In‑DOTA}-QCE[dP]D[Aph(SaPr)(5)]LTWSC-NH2 (linker 2-11 via mXylylene, also called [111In]In-DPI-4501) [111In-3BP-4501] was run?
**A.** The pKD was 7.1 to 8 pkd.

**Q.** What about the pKD [2] of the same binder?
**A.** Its pKD is over 8 pkd.

**Q.** {DOTA-PPAc}-QCE[dP]D[Aph(4SaPy2Ac)]LTWSC-NH2 (linker 2-11 via mXylylene) [3BP-4482] was tested. Which pIC50 [3] did it give?
**A.** Its pIC50 is 6.1 to 7 pic50.

**Q.** With {DOTA-APAc}-VYCE[dP]DWLTWSC-NH2 (linker 3-12 via mXylylene; reading uncertain) [3BP-3583] as the binder, how does the pKD [4] read?
**A.** Its pKD is over 8 pkd.

**Q.** And the pKD [5]?
**A.** The pKD was under 6 pkd.

**Q.** What about the pKD [6] of the same binder?
**A.** The pKD was under 6 pkd.

**Q.** And the “t1/2 (half-life of the complex, SPR)” value [7]?
**A.** The value was over 0.25 h.

**Q.** What about the pKD [8] of the same binder?
**A.** The pKD was under 6 pkd.

**Q.** And the pKD [9]?
**A.** The pKD was over 8 pkd.

**Q.** Which pKD [1] does the source give for {111In‑DOTA-PPAc}-QCE[dP]D[Phe(3-NHCO(CH2)3SO2NH2)]LTWSC-NH2 (linker 2-11 via mXylylene, also called [111In]In-DPI-4452) [111In-3BP-4452] here?
**A.** The pKD was 7.1 to 8 pkd.

**Q.** What about the pKD [2] of the same binder?
**A.** Its pKD is over 8 pkd.

B1: DOTA-PPAc-Gln-[Cys(3MeBn)-Glu-pro-Asp-Af3(Cpsu)-Leu-Thr-Trp-Ser-Cys]-NH2 (peptide)
peptide: {DOTA-PPAc}-QCE[dP]D[Phe(3-NHCO(CH2)3SO2NH2)]LTWSC-NH2
modifications: linker 2-11 via mXylylene
notes: Synthetic cyclic peptide with uncomplexed DOTA; X stands for the non-natural residue Af3(Cpsu); also called DPI-4452; 3BP-4452
**Q.** How did the “t1/2 (dissociation half-life)” value [10] turn out when B1 was run?
**A.** The value was 1.65 h.

B2: natGa-DPI-4452 (GaDOTA-PPAc-Gln-[Cys(3MeBn)-Glu-pro-Asp-Af3(Cpsu)-Leu-Thr-Trp-Ser-Cys]-NH2) (peptide)
peptide: {DOTA-PPAc(3)}-QCE[dP]D[Phe(3-NHCO(CH2)3SO2NH2)]LTWSC-NH2
modifications: linker 2-11 via mXylylene; also: natGa chelated by N-terminal DOTA
notes: Gallium complex of DPI-4452; also called 3BP-4529
**Q.** For B2, which “t1/2 (dissociation half-life)” value [10] is on record?
**A.** Its value is 1.87 h.

**Q.** How did the pIC50 [3] turn out when {DOTA-PPAc}-QCE[dP]D[Aph(6SaPyr3)]LTWSC-NH2 (linker 2-11 via mXylylene) [3BP-4481] was run?
**A.** The pIC50 was 6.1 to 7 pic50.

B3: [111In]In-DPI-4452: 111In-DOTA-PPAc-Q-[C(3MeBn)-EPD-Af3(Cpsu)-LTWSC]-NH2 (peptide)
peptide: {DOTA-PPAc}-QCE[dP]D[Phe(3-NHCO(CH2)3SO2NH2)]LTWSC-NH2
modifications: linker 2-11 via mXylylene; also: 111In complexed in DOTA
notes: also called 111In-3BP-4452; In-111-labeled DPI-4452
**Q.** For B3, which pKd [11] is on record?
**A.** The pKd was at least 9.
